Reference: article PMC5063977 (The Journal of Biological Chemistry, 2016)

How the values were obtained:
[1] = target: RAMP1-CLR heterodimer expressed in S. cerevisiae (human) (UniProt Q16602)
[2] = target: RAMP2-CLR heterodimer expressed in S. cerevisiae (human) (UniProt Q16602)
[3] = target: RAMP3-CLR heterodimer expressed in S. cerevisiae (human) (UniProt Q16602)
[4] = target: RAMP1-CLR complex expressed in HEK-293 cells (human) (UniProt Q16602)
[5] = target: RAMP2-CLR complex expressed in HEK-293 cells (human) (UniProt Q16602)
RAMP2-CLR complex expressed in HEK-293 cells (human), sequence (Q16602 23-461, chain 1 of 2): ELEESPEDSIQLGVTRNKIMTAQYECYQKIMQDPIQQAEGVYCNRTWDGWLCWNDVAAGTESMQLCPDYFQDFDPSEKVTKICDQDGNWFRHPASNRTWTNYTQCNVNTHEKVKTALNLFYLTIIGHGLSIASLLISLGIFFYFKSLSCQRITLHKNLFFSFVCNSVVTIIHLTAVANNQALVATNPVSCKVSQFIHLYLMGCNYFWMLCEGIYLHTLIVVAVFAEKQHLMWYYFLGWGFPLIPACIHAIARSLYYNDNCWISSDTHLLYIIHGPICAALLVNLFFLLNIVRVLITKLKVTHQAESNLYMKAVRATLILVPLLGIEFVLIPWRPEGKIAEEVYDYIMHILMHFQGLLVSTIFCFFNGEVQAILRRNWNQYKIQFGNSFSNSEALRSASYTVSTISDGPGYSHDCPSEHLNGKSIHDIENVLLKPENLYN
RAMP2-CLR complex expressed in HEK-293 cells (human), sequence (O60895 43-175, chain 2 of 2, further chain): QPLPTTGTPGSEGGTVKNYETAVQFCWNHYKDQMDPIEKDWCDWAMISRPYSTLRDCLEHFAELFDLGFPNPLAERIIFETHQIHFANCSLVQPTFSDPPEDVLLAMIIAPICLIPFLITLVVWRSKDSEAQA

[6] = target: RAMP3-CLR complex expressed in HEK-293 cells (human) (UniProt Q16602)
RAMP3-CLR complex expressed in HEK-293 cells (human), sequence (Q16602 23-461, chain 1 of 2): as the sequence (Q16602 23-461, chain 1 of 2) above
RAMP3-CLR complex expressed in HEK-293 cells (human), sequence (O60896 24-148, chain 2 of 2, further chain): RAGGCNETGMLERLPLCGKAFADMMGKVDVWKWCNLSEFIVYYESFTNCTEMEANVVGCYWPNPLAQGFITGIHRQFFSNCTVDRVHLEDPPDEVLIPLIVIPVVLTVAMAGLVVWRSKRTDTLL

[7] = target: RAMP1-CLR complex expressed in HEK-293 cells (human) (UniProt Q16602); remark: listed apart in the source
[8] = target: RAMP2-CLR complex expressed in HEK-293 cells (human) (UniProt Q16602); remark: listed apart in the source
[9] = target: RAMP3-CLR complex expressed in HEK-293 cells (human) (UniProt Q16602); remark: listed apart in the source
[10] = target: RAMP1-CLR complex expressed in HEK-293S cells (human) (UniProt Q16602)
RAMP1-CLR complex expressed in HEK-293S cells (human), sequence (Q16602 23-461, chain 1 of 2): as the sequence (Q16602 23-461, chain 1 of 2) above
RAMP1-CLR complex expressed in HEK-293S cells (human), sequence (O60894 27-148, chain 2 of 2, further chain): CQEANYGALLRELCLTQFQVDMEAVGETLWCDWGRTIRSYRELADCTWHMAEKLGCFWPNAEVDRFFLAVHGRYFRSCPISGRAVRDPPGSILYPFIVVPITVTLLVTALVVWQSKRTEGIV

[11] = target: RAMP2-CLR complex expressed in HEK-293S cells (human) (UniProt Q16602)
RAMP2-CLR complex expressed in HEK-293S cells (human), sequence (Q16602 23-461, chain 1 of 2): as the sequence (Q16602 23-461, chain 1 of 2) above
RAMP2-CLR complex expressed in HEK-293S cells (human), sequence (O60895 43-175, chain 2 of 2, further chain): as the sequence (O60895 43-175, chain 2 of 2, further chain) above

[12] = target: RAMP3-CLR complex expressed in HEK-293S cells (human) (UniProt Q16602)
RAMP3-CLR complex expressed in HEK-293S cells (human), sequence (Q16602 23-461, chain 1 of 2): as the sequence (Q16602 23-461, chain 1 of 2) above
RAMP3-CLR complex expressed in HEK-293S cells (human), sequence (O60896 24-148, chain 2 of 2, further chain): as the sequence (O60896 24-148, chain 2 of 2, further chain) above

[13] = target: RAMP1-CLR complex expressed in HEK-293 cells (human) (UniProt Q16602); remark: listed apart in the source
[14] = target: RAMP1-CLR complex expressed in HEK-293S cells (human) (UniProt Q16602); remark: listed apart in the source
[15] = target: RAMP2-CLR complex expressed in HEK-293 cells (human) (UniProt Q16602); remark: listed apart in the source
[16] = target: RAMP2-CLR complex expressed in HEK-293S cells (human) (UniProt Q16602); remark: listed apart in the source
[17] = target: RAMP3-CLR complex expressed in HEK-293 cells (human) (UniProt Q16602); remark: listed apart in the source
[18] = target: RAMP3-CLR complex expressed in HEK-293S cells (human) (UniProt Q16602); remark: listed apart in the source

RAMP3-CLR heterodimer expressed in S. cerevisiae (human), sequence (Q16602 23-461, chain 1 of 2): as the sequence (Q16602 23-461, chain 1 of 2) above
RAMP3-CLR heterodimer expressed in S. cerevisiae (human), sequence (O60896 24-148, chain 2 of 2, further chain): as the sequence (O60896 24-148, chain 2 of 2, further chain) above
RAMP2-CLR heterodimer expressed in S. cerevisiae (human), sequence (Q16602 23-461, chain 1 of 2): as the sequence (Q16602 23-461, chain 1 of 2) above
RAMP2-CLR heterodimer expressed in S. cerevisiae (human), sequence (O60895 43-175, chain 2 of 2, further chain): as the sequence (O60895 43-175, chain 2 of 2, further chain) above
RAMP1-CLR complex expressed in HEK-293 cells (human), sequence (Q16602 23-461, chain 1 of 2): as the sequence (Q16602 23-461, chain 1 of 2) above
RAMP1-CLR complex expressed in HEK-293 cells (human), sequence (O60894 27-148, chain 2 of 2, further chain): as the sequence (O60894 27-148, chain 2 of 2, further chain) above
RAMP1-CLR heterodimer expressed in S. cerevisiae (human), sequence (Q16602 23-461, chain 1 of 2): as the sequence (Q16602 23-461, chain 1 of 2) above
RAMP1-CLR heterodimer expressed in S. cerevisiae (human), sequence (O60894 27-148, chain 2 of 2, further chain): as the sequence (O60894 27-148, chain 2 of 2, further chain) above

hAM2 (1–47) (peptide)
pEC50, yeast growth reporter, GPA1/Gαi chimera strain [1]: 8.57 -log10
pEC50, yeast growth reporter, GPA1/Gαq chimera strain [1]: 7.99 -log10
pEC50, yeast growth reporter, GPA1/Gαs chimera strain [1]: 7.22 -log10
pKa (operational model of agonism), yeast growth reporter, GPA1/Gαi chimera strain [1]: 8.24 -log10
pKa (operational model of agonism), yeast growth reporter, GPA1/Gαq chimera strain [1]: 7.91 -log10
pKa (operational model of agonism), yeast growth reporter, GPA1/Gαs chimera strain [1]: 7.31 -log10
pEC50, yeast growth reporter, GPA1/Gαi chimera strain [2]: 8.42 -log10
pEC50, yeast growth reporter, GPA1/Gαq chimera strain [2]: 9.22 -log10
pEC50, yeast growth reporter, GPA1/Gαs chimera strain [2]: 8.05 -log10
pKa (operational model of agonism), yeast growth reporter, GPA1/Gαi chimera strain [2]: 8.3 -log10
pKa (operational model of agonism), yeast growth reporter, GPA1/Gαq chimera strain [2]: 9.16 -log10
pKa (operational model of agonism), yeast growth reporter, GPA1/Gαs chimera strain [2]: 8.1 -log10
pEC50, yeast growth reporter, GPA1/Gαi chimera strain [3]: 8.49 -log10
pEC50, yeast growth reporter, GPA1/Gαq chimera strain [3]: 6.76 -log10
pEC50, yeast growth reporter, GPA1/Gαs chimera strain [3]: 8.85 -log10
pKa (operational model of agonism), yeast growth reporter, GPA1/Gαi chimera strain [3]: 8.3 -log10
pKa (operational model of agonism), yeast growth reporter, GPA1/Gαq chimera strain [3]: 6.6 -log10
pKa (operational model of agonism), yeast growth reporter, GPA1/Gαs chimera strain [3]: 8.61 -log10
pEC50, cAMP accumulation in HEK-293 cells [4]: 7.93 -log10
pKa (operational model of agonism), cAMP accumulation in HEK-293 cells [4]: 7.76 -log10
pEC50, cAMP accumulation in HEK-293 cells [5]: 7.48 -log10
pKa (operational model of agonism), cAMP accumulation in HEK-293 cells [5]: 7.16 -log10
pEC50, cAMP accumulation in HEK-293 cells [6]: 9.14 -log10
pKa (operational model of agonism), cAMP accumulation in HEK-293 cells [6]: 9 -log10
pEC50, cAMP accumulation in HEK-293 cells, with PTX pretreatment [7]: 9.15 -log10
pEC50, cAMP accumulation in HEK-293 cells, without PTX [7]: 7.93 -log10
pKa (operational model of agonism), cAMP accumulation in HEK-293 cells, with PTX pretreatment [7]: 8.56 -log10
pKa (operational model of agonism), cAMP accumulation in HEK-293 cells, without PTX [7]: 7.7 -log10
pKa (operational model of agonism), cAMP accumulation in HEK-293 cells, with PTX pretreatment [8]: 8.84 -log10
pEC50, cAMP accumulation in HEK-293 cells, with PTX pretreatment [9]: 8.74 -log10
pEC50, cAMP accumulation in HEK-293 cells, without PTX [9]: 9.1 -log10
pKa (operational model of agonism), cAMP accumulation in HEK-293 cells, with PTX pretreatment [9]: 8.43 -log10
pKa (operational model of agonism), cAMP accumulation in HEK-293 cells, without PTX [9]: 9.08 -log10
pEC50, cAMP accumulation in HEK-293S cells, with PTX pretreatment [10]: 8.78 -log10
pEC50, cAMP accumulation in HEK-293S cells, without PTX [10]: 8.74 -log10
pEC50, cAMP accumulation in HEK-293S cells, without PTX [11]: 8.57 -log10
pEC50, cAMP accumulation in HEK-293S cells, with PTX pretreatment [12]: 7.79 -log10
pEC50, cAMP accumulation in HEK-293S cells, without PTX [12]: 8.01 -log10
pEC50, (Ca^2+)i mobilization in HEK-293 cells [13]: 6.76 -log10
pKa (operational model of agonism), (Ca^2+)i mobilization in HEK-293 cells [13]: 6.64 -log10
pEC50, (Ca^2+)i mobilization in HEK-293S cells [14]: 6.94 -log10
pKa (operational model of agonism), (Ca^2+)i mobilization in HEK-293S cells [14]: 6.76 -log10
pEC50, (Ca^2+)i mobilization in HEK-293 cells [15]: 7.41 -log10
pKa (operational model of agonism), (Ca^2+)i mobilization in HEK-293 cells [15]: 7.15 -log10
pEC50, (Ca^2+)i mobilization in HEK-293S cells [16]: 7.42 -log10
pKa (operational model of agonism), (Ca^2+)i mobilization in HEK-293S cells [16]: 7.33 -log10
pEC50, (Ca^2+)i mobilization in HEK-293 cells [17]: 8.05 -log10
pKa (operational model of agonism), (Ca^2+)i mobilization in HEK-293 cells [17]: 7.95 -log10
pEC50, (Ca^2+)i mobilization in HEK-293S cells [18]: 7.44 -log10
pKa (operational model of agonism), (Ca^2+)i mobilization in HEK-293S cells [18]: 7.35 -log10
